Measured values taken from patent US20180306788.

T1: synthetic ACC2 peptide containing P2131
T1 chain: AGQVWFPDSAYKTAQ

T2: control ACC2 proline-containing peptide (P966)
T2 chain: ARLELDDPSKVHPAE

T3: synthetic ACC2 peptide containing P450
T3 chain: ERIGFPLMIKASEGGGGK


Columns and labels:
[1] = target: acetyl-CoA carboxylase 2 (ACC2), wild type
[2] = target: T1, synthetic ACC2 peptide containing P2131
[3] = target: T2, control ACC2 proline-containing peptide …
[4] = target: T3, synthetic ACC2 peptide containing P450

Protein	in vitro ACC activity assay ([14C]malonyl-CoA from [14C]bicarbonate, 293T lysates) [1]	in vitro ACC activity assay ([14C]malonyl-CoA from [14C]bicarbonate, 293T lysates) (ACC2 P450A point mutant)	reconstituted in vitro radioactivity-based hydroxylation assay ([14C]CO2 release) [2]	reconstituted in vitro radioactivity-based hydroxylation assay ([14C]CO2 release) [3]	reconstituted in vitro radioactivity-based hydroxylation assay ([14C]CO2 release) [4]
HA-PHD3 (hemagglutinin-tagged prolyl hydroxylase 3, transiently overexpressed in 293T cells) (protein) MPLGHIMRLDLEKIALEYIVPCLHEVGFCYLDNFLGEVVGDCVLERVKQLHCTGALRDGQLAGPRAGVSKRHLRGDQITWIGGNEEGCEAISFLLSLIDRLVLYCGSRLGKYYVKERSKAMVACYPGNGTGYVRHVDNPNGDGRCITCIYYLNKNWDAKLHGGILRIFPEGKSFIADVEPIFDRLLFFWSDRRNPHEVQPSYATRYAMTVWYFDAEERAEAKKKFRNLTRKTESALTED	PHD3 overexpression amplified wild-type ACC2 activity	had no effect on the P450A variant	–	–	–
recombinant PHD3 (in vitro hydroxylation assay) (protein) MPLGHIMRLDLEKIALEYIVPCLHEVGFCYLDNFLGEVVGDCVLERVKQLHCTGALRDGQLAGPRAGVSKRHLRGDQITWIGGNEEGCEAISFLLSLIDRLVLYCGSRLGKYYVKERSKAMVACYPGNGTGYVRHVDNPNGDGRCITCIYYLNKNWDAKLHGGILRIFPEGKSFIADVEPIFDRLLFFWSDRRNPHEVQPSYATRYAMTVWYFDAEERAEAKKKFRNLTRKTESALTED	–	–	but not a peptide containing P2131	but not a peptide containing P2131 or a control ACC2 proline-containing peptide (P966)	recombinant PHD3 was shown to hydroxylate a synthetic ACC2 peptide containing P450
